{"source": "paper PMC2873289", "about": "“A Helix Replacement Mechanism Directs Metavinculin Functions” (PLoS ONE, 2010)", "binders": {"B1": {"name": "GST tagged vinculin tail domain (GST-Vt; residues 879–1,066) (domain or fragment, human, UniProt P18206-2 879-1066, looked up)", "chain": "EEKDEEFPEQKAGEVINQPMMMAARQLHDEARKWSSKGNDIIAAAKRMALLMAEMSRLVRGGSGTKRALIQCAKDIAKASDEVTRLAKEVAKQCTDKRIRTNLLQVCERIPTISTQLKILSTVKATMLGRTNISDEESEQATEMLVHNAQNLMQSVKETVREAEAASIKIRTDAGFTLRWVRKTPWYQ", "notes": "human vinculin tail domain, residues 879-1,066 of vinculin (1,066-residue isoform), cloned in pGEX-4T-1; source: E. coli BL21-DE3, purified (GSTrap FF, Superdex 75)"}}, "biological_target": "T1, metavinculin-ΔH1 (lacking residues 895–915) (human, UniProt P18206 1-1134, lacking residues 895–915)", "T1 construct": "human metavinculin, full length (1-1,134) lacking residues 895-915 (α-helix H1): 1-894 joined to 916-1,134; also called MV-ΔH1; source: E. coli BL21-DE3, purified (as full-length metavinculin); not shown: His8, N-terminal, kept", "T1 sequence (looked up)": "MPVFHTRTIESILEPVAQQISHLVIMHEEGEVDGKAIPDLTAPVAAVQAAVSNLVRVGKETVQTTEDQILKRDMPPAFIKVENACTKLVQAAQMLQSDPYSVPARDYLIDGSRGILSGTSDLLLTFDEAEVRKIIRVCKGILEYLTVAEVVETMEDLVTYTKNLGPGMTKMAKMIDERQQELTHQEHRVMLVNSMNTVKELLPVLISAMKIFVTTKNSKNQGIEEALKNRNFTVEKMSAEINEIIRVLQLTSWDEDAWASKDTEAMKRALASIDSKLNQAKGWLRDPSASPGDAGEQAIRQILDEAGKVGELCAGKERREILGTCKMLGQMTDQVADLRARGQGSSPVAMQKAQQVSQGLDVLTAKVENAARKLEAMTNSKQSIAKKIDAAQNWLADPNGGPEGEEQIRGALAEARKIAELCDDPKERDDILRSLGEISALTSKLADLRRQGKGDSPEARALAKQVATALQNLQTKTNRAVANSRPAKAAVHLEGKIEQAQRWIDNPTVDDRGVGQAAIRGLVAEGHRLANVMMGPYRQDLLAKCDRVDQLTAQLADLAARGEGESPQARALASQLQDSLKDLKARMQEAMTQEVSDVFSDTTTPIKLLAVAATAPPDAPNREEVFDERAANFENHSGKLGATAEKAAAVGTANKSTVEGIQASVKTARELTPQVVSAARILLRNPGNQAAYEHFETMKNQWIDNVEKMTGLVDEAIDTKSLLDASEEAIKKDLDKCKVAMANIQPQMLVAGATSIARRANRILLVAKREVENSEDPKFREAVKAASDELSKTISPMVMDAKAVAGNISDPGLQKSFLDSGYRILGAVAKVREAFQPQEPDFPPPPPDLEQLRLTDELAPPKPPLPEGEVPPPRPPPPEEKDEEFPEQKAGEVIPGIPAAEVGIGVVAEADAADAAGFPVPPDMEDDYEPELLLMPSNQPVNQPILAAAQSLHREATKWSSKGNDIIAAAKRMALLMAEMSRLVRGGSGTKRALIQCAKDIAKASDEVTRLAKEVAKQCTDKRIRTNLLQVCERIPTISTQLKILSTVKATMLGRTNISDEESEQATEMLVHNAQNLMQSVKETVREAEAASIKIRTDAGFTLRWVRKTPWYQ", "experiment": "pull-down; GST-Vt (0.5 µM) on GST-Sepharose beads, with or without pre-incubation with 5 µM PIP2; 15 µM His8-tagged metavinculin or deletion mutant pre-activated with talin-VBS3, 1 hr 37°C; 20 mM Tris-HCl pH 8, 150 mM NaCl; eluted with glutathione, SDS-PAGE, Western blot", "conditions": "both partners purified", "data": [{"binder": "B1", "values": [{"measurement": "binding result", "value": "binds"}]}]}
